Drawing on publication PMC10518340 (Signal Transduction and Targeted Therapy, 2023), this text covers Kd for one molecule.

The target in this experiment is T1, recombinant extracellular domain of IFNAR1 (ECD-IFNAR1) (UniProt P17181 28-436, RED-tris-NTA 2nd Generation dye on the His-tag (MST only)).
T1 construct: signal peptide in the construct; extracellular domain of IFNAR1, residues 1-436 as printed; the secreted product lacks the signal peptide; source: bought: Sino Biological (13222-H08H)
T1 sequence: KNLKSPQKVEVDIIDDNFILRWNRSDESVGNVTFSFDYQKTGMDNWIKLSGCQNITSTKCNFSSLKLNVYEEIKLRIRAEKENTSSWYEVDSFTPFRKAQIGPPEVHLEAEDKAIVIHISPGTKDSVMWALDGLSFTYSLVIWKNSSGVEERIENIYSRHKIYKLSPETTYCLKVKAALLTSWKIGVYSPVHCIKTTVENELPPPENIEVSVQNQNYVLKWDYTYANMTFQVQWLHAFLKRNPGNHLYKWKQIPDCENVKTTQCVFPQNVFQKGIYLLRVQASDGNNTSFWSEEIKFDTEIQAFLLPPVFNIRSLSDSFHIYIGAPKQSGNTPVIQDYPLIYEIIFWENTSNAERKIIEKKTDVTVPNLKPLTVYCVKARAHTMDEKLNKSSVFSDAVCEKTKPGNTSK
Nature of the experiment: MST; His-tagged ECD-IFNAR1 labelled with RED-tris-NTA 2nd Generation dye for 30 min, mixed with serially diluted LRPAP1 peptides; Monolith NT.115 capillaries; S/N above 5.0 taken as valid binding. As to conditions: both partners purified.

B1: RAPD1P1, peptide from the N-terminal of LRPAP1 (residues 35-53) (peptide)
peptide: YSREKNQPKPSPKRESGEE
notes: LRPAP1 residues 35-53; also called PAPD1P1; source: synthetic peptide (GenScript Biotech, purity 95%)
By Kd is commonly meant the equilibrium constant for the complex coming apart. Turning to B1, the Kd is 11.3 nM.
